# B1: Aquamavirus (nucleic acid, listed as Aquamavirus sp.)
# DNA: TTCAAAGGTGGCGGGAGAGTTGGCCTCACGCTGTTTAGCGTGAGAGCTGGCTCTCCTGCCCCTTCCCCTGAGCCGGGGATCTTGGCTCATTCCCCTCTTTTCTATCCTCCCTCATTGGACTTTACGGATGACCCGGCATAAACTTGACAACCGATGTTGGATTTCCCTTGTGGCTGTGATGGAGGACATACCCTCGGGTGTAGTTGTGTGCGTGTCGCTCTGCGACTCGAGCTTCAAAGTGGTGCTGAAATATTGCAAGCGTCGTTGCTCGATTAACGGAGTGGTACAATCCTATGAACCCAAGTGCATTCATGCGAAAGCCCCGGAGGGGTGAGTAGCATGGACTCGAATCAGAAGAGCTGGAGCTCGCTTGGTACGGCACGTAGCATTGCTTTGCCTAAAGACCAAGGGGGTATGGCTATAGGTGGGGGCCTATAGCTTGTCCAGTGCTGGTTGACAGACTCGTGCTACGCGTCTGGTTCGAGTATAAGTAGCTGCAACTCACT
# B2: Fipivirus E (nucleic acid)
# DNA: CTCTTCCGATCTTGGGGGTTCGCCCCCATGTCTCATTTCAACTAGCCGTGTGTCTAGTTAACGCACCGCCTCACCCTGGTCGTTATCGGGTCGGTTCTTGCGACCGTTAGATCGTGAGCGTTTCTGAGGATCAGTTCGTATAAGTTCTCCGGTGTGGCGACCGTAAAATCGTCACGTCCCATGCAATAGATGACGTTAAACTCGTTTGCCAGTTACATAAAGGAATGTTGTTACTTTTAAATTGTCTGTTACATTTAACATCTTGCCAGTATGATGCTACTGTACACTACGGGTGTAGGAACCTTGTAGTGTGACGTATCACTCATATGTGGATGGGTGCTCCAGACCTTTATGGAAGCTCTCAGTTAGTAGTGATCCTTGACTTCATTGAGCCCTGGTAACAGTGGAAGTCAAGATGTATATGTTGCTCAACACACTTCGGTGCTACGAAGCTGTTTGTGGAAGTACTGGCGAGGTTCATTCTGAATCATATGTTTGTCACATAGTCAGGGAGTGCCGTCGCTTACGACGGACCCTTTTTCTTTATAATTACAAATCTGTGTCTCAAGTGTTGTTGGCTGGTTTTCTTCTTCTGTTTTCATTGTTCATATATATACGTCAGAGTGAAAGACTCGGTATATACAAAACTGATCCAGA
# modifications: Fipivirus E
# B3: Fipivirus A (nucleic acid)
# DNA: TGCGGGTAAACTCCCGCATGTGTGAATGAGGCGATGTCCCAGGAACTAACTGCCGATCCTGGTTTTAACTACGATCCGTATTTGTTACTAATGCGATATCCCCCCATTGTTTGCCTCCATGTTGTTTTCAACGCTTTTGGCCTTGAGTGTTATCAAGTGTTTTAGCGACATAGTGGGAAGCTACGGCTGCGTCCCCATTTTTGAGTGGCGACCCAGTTTTAGTGGCCACTCTGTCCCTGAACTGCGCTATAATGTGAATTTATGTTCACAAAAACGGACTGATGTAACTGTTAATGACTAAGGAATAGTACCTCACTGAAGTATCAAGACCCCGTTCGAGCGGTGTACATATATGGATGGAAACCTTGTCTGAGTCATCTCGAATACTAATCAATGAGGGATGTCGAGTAAGCATATCATGAACCACATAGAATAGTGGGGTTTCGGGGTTAGAGGCTCTCTGCAGCAATGTATCTCTAACACCATGGCCGAAATGAGAGATAGAGACCACGATGTTTGTGTGTAAGTAATGATGTGTGGAAAGAAAATTCTGAATGTTGGTATGATATCAGTCTAAGGGGAGTGGCTCACCTAAGAGCTACCCAAACATTTCACAGCAGACAACATAACGTACTGAGAGTAGTTGGAAGGTTCCAGAAATCAGT
# modifications: Fipivirus A
# B4: RhPV (nucleic acid)
# DNA: GATAAAAGAACCTATAATCCCTTCGCACACCGCGTCACACCGCGCTATATGCTGCTCATTAGGAATTACGGCTCCTTTTTTGTGGATACAATCTCTTGTATACGATATACTTATTGTTAATTTCATTGACCTTTACGCAATCCTGCGTAAATGCTGGTATAGGGTGTACTTCGGATTTCCGAGCCTATATTGGTTTTGAAAGGACCTTTAAGTCCCTACTATACTACATTGTACTAGCGTAGGCCACGTAGGCCCGTAAGATATTATAACTATTTTATTATATTTTATTCACCCCCCACATTAATCCCAGTTAAAGCTTTATAACTATAAGTAAGCCGTGCCGAAACGTTAATCGGTCGCTAGTTGCGTAACAACTGTTAGTTTAATTTTCCAAAATTTATTTTTCACAATTTTTAGTTAAGATTTTAGCTTGCCTTAAGCAGTCTTTATATCTTCTGTATATTATTTTAAAGTTTATAGGAGCAAAGTTCGCTTTACTCGCAATAGCTATTTTATTTATTTTAGGAATATTATCACCTCGTAATTATTTAATTATAACATTAGCTTTATCTATTTATA
# modifications: Rhopalosiphum padi virus
# B5: Avisivirus A (nucleic acid)
# DNA: TTCACTCGCTTTCCCCCCCTCTCTATAGGGGCGGTCTTTTAATTCTTATTAATTTCCTACTTTACTATCAAATTTCTTCTAAGTAGGGACTGAGGTCACTTAGCCCTCCCTCTCCTGGGCTTTCCAGGGTTATAGAGGTTCTAAAGCTAAGCCATGTGTCTTGAGCTACACTTAGTACAAAGGTTTAGTAATGATTGTACATGCCAGTAACCTTCTAGTGCCCATGGATTAAAGAGTGGTAACACTCTCCATGGGGCCCGAAAGGCTAGTGGGCATAGTTGGCATCAAGGAAGGGGTCCCCACCCCAACCTGAATTGCTGGCTAGAAGCTCACCTTAGAAGAAGTGCTGGGTGACAACGTGTCCAATCGTGAACGACTGATGGAAACGTGTGGAGATGGATATGTGGGGGTTCACTGAGTAGATGCCCTGAAGGAGAAATCTGATCAGGGGCCCGTGACTATACGCTAGGTAAACCGGGTATAAAAACCATGAAAGGTGGCCCAAAATCTCTTCCTTTTATTTTATTTCTATGTTGGTGACAGTCAAG
# modifications: Avisivirus A
# B6: Hepatovirus C (nucleic acid)
# DNA: TTCAAAAGCCCCAGCGGGGTTTCATTACCCCGCTGTGGCTTTTGGACTTCCCTAGGATGGGGAAGTAAATTACCATCCTCGCGTTTGCCGTGCGTTAACGGCTACTTTTCTTCTAGCTGTAGAAGTAAAATTCAGCATGTTTTATGTTTGTTTGTCTTGTTTGTTATATACATTTTTACACTCCTACAAATGCACATGAAGAACAGTTTGTAGAGATTAACAAACGCTTAGCTGAACCTAGGTGGTGAATCTAGTAGTAAGATAAGTAGAGGAAGCTATACCTTAAGTTGGTTGGGCCCTCGTGTTTGCTCTATAAACAAAACCAAGTGAGTAGAGTGGATGAACAGTACTAAATCCCTGAGTACAGGGAACCTCACAGGTGTGATACACTTATGTCTATGTGACCTGGTTGGAGGTTGGGCGTGCCCTATGATACTGGAGTGGGAGATCTTTTGGGGAACCCACGTTTTCACACTGCCTGATAGGGTCTTGCCGAGAGACTCACTTGTTTCGGCTGTACTTGTAAC
# modifications: Hepatovirus C
# B7: Fipivirus C (nucleic acid)
# DNA: CGCGGTTAAACCCGCGCAACCTTCTTTCAGCCGCGTCTGAGTAGCGCGGTTAGTCCTGATACACAGTTTCCTGTTGGGTACTGTGTCTTCGGGTGAATGCTCTTGTGTGAATGTTTTAGGCTGTTTAAGGGAAGCGTTTCCCCGTGCGCTGTGAGGGTTTCTCACGCTCTTTCGGGGTGCAGTCTCTTCTGTTGTTCATTAAGATGTATGGATGCACTGTTGTGAAGGATTTGTGAACTGGGGATCGACACCCCGTGAGGGGTGCCCCAGTGTCCATAGGAGTTTGCTGGAGAGGTGTGTTGCTGTAGTGACTATCCGTGACCTGGCATTCTAAGGTGTTGACCCCAACCTGTGAGGGTCTGGATCGCAGTGTTGAAGTGCTTTGGAGGGTTCAATGGGGTTTCTGTAGTGGATATTATGTGCTTGACGACTACTGGTACGAGTGTATTGGGGGTCTACATGTGTGA
# modifications: Fipivirus C
# Test system: HEK293 cells
# Format: cell-based, human
# Details: luminescence from secreted Gluc in supernatant 24 hours after transfection of HEK293 cells; circular RNA encoding Gluc with the named IRES (UTR truncated to 675 nt)
row,Molecule,Expression
1,B1,4.51E+06
2,B2,1.10E+05
3,B3,2.69E+05
4,B4,1.10E+05
5,B5,1.91E+05
6,B6,5.08E+05
7,B7,1.09E+05
